Reference: patent US20180057581A1 (MorphoSys, published 2018)
Substitutions are numbered along the chain they refer to. Names and notes keep the numbering of the source.

T1: Recombinant human sgM-CSF (human, UniProt P09603 33-255)
T1 construct: also called human secreted glycosylated M-CSF; Human M-CSF
T1 sequence: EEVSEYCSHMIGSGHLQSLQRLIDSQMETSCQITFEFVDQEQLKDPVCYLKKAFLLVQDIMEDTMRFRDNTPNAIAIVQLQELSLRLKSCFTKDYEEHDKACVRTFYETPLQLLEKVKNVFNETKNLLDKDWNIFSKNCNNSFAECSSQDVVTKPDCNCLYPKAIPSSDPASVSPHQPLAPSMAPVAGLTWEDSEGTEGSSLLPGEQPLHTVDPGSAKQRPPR

T2: human cell-surface M-CSF on stably transfected CHO cells (human, UniProt P09603 33-554)
T2 construct: also called csM-CSF
T2 sequence: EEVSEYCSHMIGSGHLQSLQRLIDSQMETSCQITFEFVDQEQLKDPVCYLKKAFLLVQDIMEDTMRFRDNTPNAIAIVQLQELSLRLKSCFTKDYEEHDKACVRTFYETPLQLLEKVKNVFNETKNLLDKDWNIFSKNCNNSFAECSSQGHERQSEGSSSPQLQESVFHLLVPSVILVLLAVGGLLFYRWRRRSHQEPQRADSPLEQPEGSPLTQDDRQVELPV

T3: Recombinant cynomolgus monkey sgM-CSF (cynomolgus (Macaca fascicularis), UniProt P09603 33-255 (human entry), limits assumed)
T3 construct: used also where only 'cynomolgus M-CSF' is printed (ELISA result, SET); also called cynomolgus sgM-CSF; cyno sgM-CSF
T3 chain: T1 sequence with V186M, E192D

T4: human M-CSF (human, UniProt P09603 33-255, limits assumed)
T4 construct: also called M-CSF (human); CSF-1
T4 sequence: T1 sequence

B1: Blanche, IgG1_D265A (antibody, V domains shown)
VH: QVQLQQSGPGLVKPSQTLSLTCAISGDSVSSNSAAWNWIRQSPSRGLEWLGRTYYRSKWKHEYAMSVKSRITINPDTSKNQFSLQLNSVTPEDTAVYYCARDRYYYSAFDYWGQGTLVTVSS
VL: DIALTQPASVSGSPGQSITISCTGTSSDVGGYNSVSWYQQHPGKAPKLMIYAVSNRPSGVSNRFSGSKSGNTASLTISGLQAEDEADYYCASYDERFTRVFGGGTKLTVLG
notes: tested as IgG1 with D265A in the Fc (EU index); Parental antibody of Caline, Camille, Celine
B2: Celine, IgG1_D265A (antibody, V domains shown)
VH: B1 VH with S31T, N32S, M65V
VL: B1 VL with D1Q, I2S, M49I
notes: tested as IgG1 with D265A in the Fc (EU index)
B3: Camille, IgG1_D265A (antibody, V domains shown)
VH: B1 VH with D27E, S31T, N32S, M65V
VL: B1 VL with D1Q, I2S, M49L
notes: as for B2
B4: Meriem, IgG1_D265A (antibody, V domains shown)
VH: B1 VH with S31T, N32S, H61K, M65Q
VL: B1 VL with D1Q, I2S, M49I
notes: as for B2
B5: Maelle, IgG1_D265A (antibody, V domains shown)
VH: B1 VH with D27E, S31T, N32S, H61K, M65Q
VL: B1 VL with D1Q, I2S, M49I
notes: as for B2
B6: Madeleine, IgG1_D265A (antibody, V domains shown)
VH: B1 VH with H61K, M65Q
VL: B1 VL with D1Q, I2S
notes: as for B2
B7: Laurine, IgG1_D265A (antibody, V domains shown)
VH: B1 VH with H61K, M65Q
VL: B1 VL
notes: tested as IgG1 with D265A in the Fc (EU index); Parental antibody of Madeleine, Maelle, Meriem
B8: Caline, IgG1_D265A (antibody, V domains shown)
VH: B1 VH
VL: B1 VL with D1Q, I2S
notes: as for B2
B9: HeRX1-10G1, IgG1 (antibody, V domains shown)
VH: QVQLQESGPGLVKPSQTLSLTCTVSDYSITSDYAWNWIRQFPGKGLEWMGYISYSGSTSYNPSLKSRITISRDTSKNQFSLQLNSVTAADTAVYYCASFDYAHAMDYWGQGTTVTVSS
VL: DIVLTQSPAFLSVTPGEKVTFTCQASQSIGTSIHWYQQKTDQAPKLLIKYASESISGIPSRFSGSGSGTDFTLTISSVEAEDAADYYCQQINSWPTTFGGGTKLEIKR
notes: tested as IgG1
B10: HeRX1-10G1, IgG1_D265A (antibody, V domains shown)
VH: B9 VH
VL: B9 VL
notes: Prior art antibody; tested as IgG1 with D265A in the Fc (EU index)
B11: Romaine, IgG1_D265A (antibody, V domains shown)
VH: EVQLVESGGGLVKPGGSLRLSCAASGFTFSIYAMSWVRQAPGKGLEWVGRIKSNADGGTTEYAAPVKGRFTISRDDSKNTLYLQMNSLKTEDTAVYYCARMRYYSDLYFDPWGQGTLVTVSS
VL: DIELTQPPSVSVSPGQTASITCSGDAIGSKYVHWYQQKPGQAPVLVISKDNKRPSGIPERFSGSNSGNTATLTISGTQAEDEADYYCQTATVSSYWWVFGGGTKLTVLG
notes: tested as IgG1 with D265A in the Fc (EU index); Parental antibody of Satine, Servane
B12: Satine, IgG1_D265A (antibody, V domains shown)
VH: B11 VH
VL: SYELTQPPSVSVSPGQTASITCSGDKLGQKYVSWYQQKPGQSPVLVISQDRKRPSGIPERFSGSNSGNTATLTISGTQAEDEADYYCQTWTHLQWVFGGGTKLTVLG
notes: as for B2
B13: Servane, IgG1_D265A (antibody, V domains shown)
VH: B11 VH with I31T, M34I, R50F, N54K, A55H, D56N, G57S
VL: B12 VL
notes: as for B2
B14: 8.10.3F, IgG2 (antibody, V domains shown)
VH: EVQLVESGGGLVQPGGSLRLSCAASGFTFSSFSMTWVRQAPGKGLEWVSYISSRSSTISYADSVKGRFTISRDNAKNSLYLQMNSLRDEDTAVYYCARDPLLAGATFFDYWGQGTLVTVSS
VL: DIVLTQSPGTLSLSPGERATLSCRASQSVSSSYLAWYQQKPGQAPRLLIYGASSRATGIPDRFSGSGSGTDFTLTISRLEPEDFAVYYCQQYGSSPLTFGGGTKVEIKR
notes: tested as IgG2; also called 8.10.F3
B15: 8.10.3F, IgG1_D265A (antibody, V domains shown)
VH: B14 VH
VL: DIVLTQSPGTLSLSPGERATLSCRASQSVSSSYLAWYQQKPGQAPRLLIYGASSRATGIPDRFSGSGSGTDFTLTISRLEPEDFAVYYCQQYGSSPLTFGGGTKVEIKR
notes: Prior art antibody; tested as IgG1 with D265A in the Fc (EU index); also called 8.10.F3
B16: Madeleine (format not stated) (antibody, V domains shown)
VH: B1 VH with H61K, M65Q
VL: B1 VL with D1Q, I2S
B17: Celine (format not stated) (antibody, V domains shown)
VH: B1 VH with S31T, N32S, M65V
VL: B1 VL with D1Q, I2S, M49I
B18: Caline (format not stated) (antibody, V domains shown)
VH: B1 VH
VL: B1 VL with D1Q, I2S

Molecular target: T1, Recombinant human sgM-CSF
Assay: MSD receptor binding inhibition: 12.5 pM human sgM-CSF preincubated with antibody, binding to coated human CSF1-R-Fc
Experimental: (§1) Complexes were then transferred to 384 well MSD plates coated with 2 μg/ml of the corresponding receptor. Plates were then washed and incubated with the streptavidin/ECL conjugate for 2 h with shaking at room temperature. 35 μl MSD read buffer T with surfactant was then added per well and subsequently measured using MSD Sector Imager 6000.

Row | IC50 [pM] | Binder
1 | 6.2 | B1
2 | 4.7 | B2
3 | 4.4 | B3
4 | 7 | B4
5 | 5.3 | B5
6 | 5.6 | B6
7 | 4.9 | B7
8 | 6.1 | B8
9 | 26.5 | B9
10 | 28 | B10
11 | 9.1 | B11
12 | 15.1 | B12
13 | 31.3 | B13
14 | 31.4 | B14
15 | 19.2 | B15

Molecular target: T2, human cell-surface M-CSF on stably …
Assay: FACS, CHO cells stably transfected with M-CSF (n = 3)

Row | EC50 [pM] | Binder
16 | 7500 | B1
17 | 9700 | B2
18 | 6100 | B3
19 | 12300 | B4
20 | 10200 | B5
21 | 6400 | B6
22 | 11200 | B7
23 | 9800 | B8
24 | 12600 | B9
25 | 8900 | B10
26 | 16400 | B11
27 | 11300 | B12
28 | 21300 | B13
29 | 23200 | B14
30 | 8900 | B15

Molecular target: T3, Recombinant cynomolgus monkey sgM-CSF
Assay: ELISA
Experimental: (§2) BSA was used as a negative control substrate.
(§3) After blocking of plates with 5% skim milk powder in PBS, Fab-containing E. coli lysates, IgG-containing cell culture supernatants or purified IgG or Fab proteins were added. Binding of Fabs or IgGs was detected by F(ab)₂ specific goat anti-human IgG conjugated to alkaline phosphatase (Dianova Cat# 109-055-097; diluted 1:5000) using Attophos fluorescence substrate (Roche, #11681982001). Fluorescence emission at 535 nm was recorded with excitation at 430 nm.

Row | ELISA fluorescence units [units] | Binder
31 | > 35000 | B16
32 | > 35000 | B17
33 | > 35000 | B18

Molecular target: T4, human M-CSF
Assay: ELISA
Experimental: as §2, §3

Row | ELISA fluorescence units [units] | Binder
34 | > 35000 | B16
35 | > 35000 | B17
36 | > 35000 | B18

Molecular target: T1, Recombinant human sgM-CSF
Assay: cell-based or functional assay

Row | IC50, inhibition of M-NFS-60 proliferation induced by recombinant human M-CSF (9.5 pM) [pM] | Binder
37 | 2.9 | B1
38 | 2.7 | B2
39 | 2.3 | B3
40 | 3.1 | B4
41 | 2.7 | B5
42 | 3 | B6
43 | 2.6 | B7
44 | 3.1 | B8
45 | 3.6 | B9
46 | 3 | B10
47 | 8.4 | B11
48 | 5.3 | B12
49 | 11.8 | B13
50 | 71.1 | B14
51 | 14.9 | B15

Molecular target: T3, Recombinant cynomolgus monkey sgM-CSF
Assay: cell-based or functional assay

Row | IC50, inhibition of M-NFS-60 proliferation induced by recombinant cynomolgus M-CSF (9.5 pM) [pM] | Binder
52 | 3.3 | B1
53 | 3 | B2
54 | 2.6 | B3
55 | 2.8 | B4
56 | 2.3 | B5
57 | 2.8 | B6
58 | 2.8 | B7
59 | 4.3 | B8
60 | 4.1 | B9
61 | 3.5 | B10
62 | 8.1 | B11
63 | 5.4 | B12
64 | 13.4 | B13
65 | 84.6 | B14
66 | 16.5 | B15

Molecular target: T3, Recombinant cynomolgus monkey sgM-CSF
Assay: MSD receptor binding inhibition: 12.5 pM cynomolgus sgM-CSF preincubated with antibody, binding to coated human CSF1-R-Fc
Experimental: as §1

Row | IC50 [pM] | Binder
67 | 6.6 | B1
68 | 6.9 | B2
69 | 5.9 | B3
70 | 7.3 | B4
71 | 6.4 | B5
72 | 5.6 | B6
73 | 4.3 | B7
74 | 6.3 | B8
75 | 27.6 | B9
76 | 18 | B10
77 | 9.1 | B11
78 | 13.5 | B12
79 | 11.8 | B13
80 | 20.7 | B14
81 | 14.6 | B15
